The labels stand for the following.
B1: Pistol ribozyme (parent)
chain: GGGUCGUUGUUCCAUAAUCGCGUGGAUAUGGCACGCAAGUUUCUACCGGGCACCGUAAAUGUCCGACUGGAGCCGUUCGGGCGGCUAUAAACAGACCUCAGGCCCGAAGCGUGGCGGCACCUGCCGCCGGUGGUAAAAAAGAUCGGAAGAGCACACGUCU

The values that follow come from the RNAGym collection of RNA variant scans (doi:10.1021/acssynbio.7b00057).

The data set covers variants of B1. Put plainly: aptazyme ON/OFF ratio, guanine; higher = stronger switching; co-transcriptional cleavage with and without guanine.
Turning to GGGUCGUUGAGCAAUAAUCGCGUGGAUAUGGCACGCAAGUUUCUACCGGGCACCGUAAAUGUCCGACUGGAGCCGUUCGGGCGGCUAUAAACAGACCUCAGGCCCGAAGCGUGGCGGCACCUGCCGCCGGUGGUAAAAAAGAUCGGAAGAGCACACGUCU [U10A U11G C13A], the “aptazyme ON/OFF ratio” value amounted to 1.33.
For GGGUCGUUGAGCUAUAAUCGCGUGGAUAUGGCACGCAAGUUUCUACCGGGCACCGUAAAUGUCCGACUGGAGCCGUUCGGGCGGCUAUAAACAGACCUCAGGCCCGAAGCGUGGCGGCACCUGCCGCCGGUGGUAAAAAAGAUCGGAAGAGCACACGUCU [U10A U11G C13U] the value was 1.37; for GGGUCGUUGAGCGAUAAUCGCGUGGAUAUGGCACGCAAGUUUCUACCGGGCACCGUAAAUGUCCGACUGGAGCCGUUCGGGCGGCUAUAAACAGACCUCAGGCCCGAAGCGUGGCGGCACCUGCCGCCGGUGGUAAAAAAGAUCGGAAGAGCACACGUCU [U10A U11G C13G], 1.19.
For GGGUCGUUGAGACAUAAUCGCGUGGAUAUGGCACGCAAGUUUCUACCGGGCACCGUAAAUGUCCGACUGGAGCCGUUCGGGCGGCUAUAAACAGACCUCAGGCCCGAAGCGUGGCGGCACCUGCCGCCGGUGGUAAAAAAGAUCGGAAGAGCACACGUCU [U10A U11G C12A] the value was 1.13; for GGGUCGUUGAGGCAUAAUCGCGUGGAUAUGGCACGCAAGUUUCUACCGGGCACCGUAAAUGUCCGACUGGAGCCGUUCGGGCGGCUAUAAACAGACCUCAGGCCCGAAGCGUGGCGGCACCUGCCGCCGGUGGUAAAAAAGAUCGGAAGAGCACACGUCU [U10A U11G C12G], 1.55.
For GGGUCGUUGAGUCAUAAUCGCGUGGAUAUGGCACGCAAGUUUCUACCGGGCACCGUAAAUGUCCGACUGGAGCCGUUCGGGCGGCUAUAAACAGACCUCAGGCCCGAAGCGUGGCGGCACCUGCCGCCGGUGGUAAAAAAGAUCGGAAGAGCACACGUCU [U10A U11G C12U] the value was 1.52.
Turning to GGGUCGUUGCUCCAUAAUCGCGUGGAUAUGGCACGCAAGUUUCUACCGGGCACCGUAAAUGUCCGACUGGAGCCGUUCGGGCGGCUAUAAACAGACCUCAGGCCCGAAGCGUGGCGGCACCUGCCGCCGGUGGUAAAAAAGAUCGGAAGAGCACACGUCU [U10C], the “aptazyme ON/OFF ratio” value worked out at 3.69.
For GGGUCGUUGACUAAUAAUCGCGUGGAUAUGGCACGCAAGUUUCUACCGGGCACCGUAAAUGUCCGACUGGAGCCGUUCGGGCGGCUAUAAACAGACCUCAGGCCCGAAGCGUGGCGGCACCUGCCGCCGGUGGUAAAAAAGAUCGGAAGAGCACACGUCU [U10A U11C C12U C13A], the “aptazyme ON/OFF ratio” value amounted to 1.06.
As to GGGUCGUUGACUGAUAAUCGCGUGGAUAUGGCACGCAAGUUUCUACCGGGCACCGUAAAUGUCCGACUGGAGCCGUUCGGGCGGCUAUAAACAGACCUCAGGCCCGAAGCGUGGCGGCACCUGCCGCCGGUGGUAAAAAAGAUCGGAAGAGCACACGUCU [U10A U11C C12U C13G], the “aptazyme ON/OFF ratio” value turned out to be 1.08.
On to GGGUCGUUGACUUAUAAUCGCGUGGAUAUGGCACGCAAGUUUCUACCGGGCACCGUAAAUGUCCGACUGGAGCCGUUCGGGCGGCUAUAAACAGACCUCAGGCCCGAAGCGUGGCGGCACCUGCCGCCGGUGGUAAAAAAGAUCGGAAGAGCACACGUCU [U10A U11C C12U C13U], for which the “aptazyme ON/OFF ratio” value was found to be 1.03.
Consider GGGUCGUUGAGAUAUAAUCGCGUGGAUAUGGCACGCAAGUUUCUACCGGGCACCGUAAAUGUCCGACUGGAGCCGUUCGGGCGGCUAUAAACAGACCUCAGGCCCGAAGCGUGGCGGCACCUGCCGCCGGUGGUAAAAAAGAUCGGAAGAGCACACGUCU [U10A U11G C12A C13U], for which the “aptazyme ON/OFF ratio” value is 1.46.
Consider GGGUCGUUGAGAAAUAAUCGCGUGGAUAUGGCACGCAAGUUUCUACCGGGCACCGUAAAUGUCCGACUGGAGCCGUUCGGGCGGCUAUAAACAGACCUCAGGCCCGAAGCGUGGCGGCACCUGCCGCCGGUGGUAAAAAAGAUCGGAAGAGCACACGUCU [U10A U11G C12A C13A], for which the “aptazyme ON/OFF ratio” value came to 1.04.
For GGGUCGUUGAGAGAUAAUCGCGUGGAUAUGGCACGCAAGUUUCUACCGGGCACCGUAAAUGUCCGACUGGAGCCGUUCGGGCGGCUAUAAACAGACCUCAGGCCCGAAGCGUGGCGGCACCUGCCGCCGGUGGUAAAAAAGAUCGGAAGAGCACACGUCU [U10A U11G C12A C13G] the value was 1.23; for GGGUCGUUGACCUAUAAUCGCGUGGAUAUGGCACGCAAGUUUCUACCGGGCACCGUAAAUGUCCGACUGGAGCCGUUCGGGCGGCUAUAAACAGACCUCAGGCCCGAAGCGUGGCGGCACCUGCCGCCGGUGGUAAAAAAGAUCGGAAGAGCACACGUCU [U10A U11C C13U], 1.01; for GGGUCGUUGACCAAUAAUCGCGUGGAUAUGGCACGCAAGUUUCUACCGGGCACCGUAAAUGUCCGACUGGAGCCGUUCGGGCGGCUAUAAACAGACCUCAGGCCCGAAGCGUGGCGGCACCUGCCGCCGGUGGUAAAAAAGAUCGGAAGAGCACACGUCU [U10A U11C C13A], 1.02.
For GGGUCGUUGACCGAUAAUCGCGUGGAUAUGGCACGCAAGUUUCUACCGGGCACCGUAAAUGUCCGACUGGAGCCGUUCGGGCGGCUAUAAACAGACCUCAGGCCCGAAGCGUGGCGGCACCUGCCGCCGGUGGUAAAAAAGAUCGGAAGAGCACACGUCU [U10A U11C C13G] the value was 1.04.
As for GGGUCGUUGCUUAAUAAUCGCGUGGAUAUGGCACGCAAGUUUCUACCGGGCACCGUAAAUGUCCGACUGGAGCCGUUCGGGCGGCUAUAAACAGACCUCAGGCCCGAAGCGUGGCGGCACCUGCCGCCGGUGGUAAAAAAGAUCGGAAGAGCACACGUCU [U10C C12U C13A], the “aptazyme ON/OFF ratio” value was 1.13.
In the case of GGGUCGUUGCUAUAUAAUCGCGUGGAUAUGGCACGCAAGUUUCUACCGGGCACCGUAAAUGUCCGACUGGAGCCGUUCGGGCGGCUAUAAACAGACCUCAGGCCCGAAGCGUGGCGGCACCUGCCGCCGGUGGUAAAAAAGAUCGGAAGAGCACACGUCU [U10C C12A C13U], the “aptazyme ON/OFF ratio” value was found to be 1.18.
For GGGUCGUUGCUAGAUAAUCGCGUGGAUAUGGCACGCAAGUUUCUACCGGGCACCGUAAAUGUCCGACUGGAGCCGUUCGGGCGGCUAUAAACAGACCUCAGGCCCGAAGCGUGGCGGCACCUGCCGCCGGUGGUAAAAAAGAUCGGAAGAGCACACGUCU [U10C C12A C13G] the value was 1.19; for GGGUCGUUGCUAAAUAAUCGCGUGGAUAUGGCACGCAAGUUUCUACCGGGCACCGUAAAUGUCCGACUGGAGCCGUUCGGGCGGCUAUAAACAGACCUCAGGCCCGAAGCGUGGCGGCACCUGCCGCCGGUGGUAAAAAAGAUCGGAAGAGCACACGUCU [U10C C12A C13A], 1.23; for GGGUCGUUGAGUUAUAAUCGCGUGGAUAUGGCACGCAAGUUUCUACCGGGCACCGUAAAUGUCCGACUGGAGCCGUUCGGGCGGCUAUAAACAGACCUCAGGCCCGAAGCGUGGCGGCACCUGCCGCCGGUGGUAAAAAAGAUCGGAAGAGCACACGUCU [U10A U11G C12U C13U], 1.27.
For GGGUCGUUGAGUAAUAAUCGCGUGGAUAUGGCACGCAAGUUUCUACCGGGCACCGUAAAUGUCCGACUGGAGCCGUUCGGGCGGCUAUAAACAGACCUCAGGCCCGAAGCGUGGCGGCACCUGCCGCCGGUGGUAAAAAAGAUCGGAAGAGCACACGUCU [U10A U11G C12U C13A] the value was 1.62.
For GGGUCGUUGAGUGAUAAUCGCGUGGAUAUGGCACGCAAGUUUCUACCGGGCACCGUAAAUGUCCGACUGGAGCCGUUCGGGCGGCUAUAAACAGACCUCAGGCCCGAAGCGUGGCGGCACCUGCCGCCGGUGGUAAAAAAGAUCGGAAGAGCACACGUCU [U10A U11G C12U C13G] the value was 1.24; for GGGUCGUUGCUGAAUAAUCGCGUGGAUAUGGCACGCAAGUUUCUACCGGGCACCGUAAAUGUCCGACUGGAGCCGUUCGGGCGGCUAUAAACAGACCUCAGGCCCGAAGCGUGGCGGCACCUGCCGCCGGUGGUAAAAAAGAUCGGAAGAGCACACGUCU [U10C C12G C13A], 1.24.
For GGGUCGUUGCUGUAUAAUCGCGUGGAUAUGGCACGCAAGUUUCUACCGGGCACCGUAAAUGUCCGACUGGAGCCGUUCGGGCGGCUAUAAACAGACCUCAGGCCCGAAGCGUGGCGGCACCUGCCGCCGGUGGUAAAAAAGAUCGGAAGAGCACACGUCU [U10C C12G C13U], the “aptazyme ON/OFF ratio” value worked out at 1.35.
For GGGUCGUUGCUGGAUAAUCGCGUGGAUAUGGCACGCAAGUUUCUACCGGGCACCGUAAAUGUCCGACUGGAGCCGUUCGGGCGGCUAUAAACAGACCUCAGGCCCGAAGCGUGGCGGCACCUGCCGCCGGUGGUAAAAAAGAUCGGAAGAGCACACGUCU [U10C C12G C13G] the value was 1.09.
For GGGUCGUUGAGCCAUAAUCGCGUGGAUAUGGCACGCAAGUUUCUACCGGGCACCGUAAAUGUCCGACUGGAGCCGUUCGGGCGGCUAUAAACAGACCUCAGGCCCGAAGCGUGGCGGCACCUGCCGCCGGUGGUAAAAAAGAUCGGAAGAGCACACGUCU [U10A U11G] the value was 2.01; for GGGUCGUUGCUGCAUAAUCGCGUGGAUAUGGCACGCAAGUUUCUACCGGGCACCGUAAAUGUCCGACUGGAGCCGUUCGGGCGGCUAUAAACAGACCUCAGGCCCGAAGCGUGGCGGCACCUGCCGCCGGUGGUAAAAAAGAUCGGAAGAGCACACGUCU [U10C C12G], 1.36.
For GGGUCGUUGCUUCAUAAUCGCGUGGAUAUGGCACGCAAGUUUCUACCGGGCACCGUAAAUGUCCGACUGGAGCCGUUCGGGCGGCUAUAAACAGACCUCAGGCCCGAAGCGUGGCGGCACCUGCCGCCGGUGGUAAAAAAGAUCGGAAGAGCACACGUCU [U10C C12U] the value was 2.09; for GGGUCGUUGCUACAUAAUCGCGUGGAUAUGGCACGCAAGUUUCUACCGGGCACCGUAAAUGUCCGACUGGAGCCGUUCGGGCGGCUAUAAACAGACCUCAGGCCCGAAGCGUGGCGGCACCUGCCGCCGGUGGUAAAAAAGAUCGGAAGAGCACACGUCU [U10C C12A], 1.51; for GGGUCGUUGACUCAUAAUCGCGUGGAUAUGGCACGCAAGUUUCUACCGGGCACCGUAAAUGUCCGACUGGAGCCGUUCGGGCGGCUAUAAACAGACCUCAGGCCCGAAGCGUGGCGGCACCUGCCGCCGGUGGUAAAAAAGAUCGGAAGAGCACACGUCU [U10A U11C C12U], 1.04.
Take GGGUCGUUGAGGGAUAAUCGCGUGGAUAUGGCACGCAAGUUUCUACCGGGCACCGUAAAUGUCCGACUGGAGCCGUUCGGGCGGCUAUAAACAGACCUCAGGCCCGAAGCGUGGCGGCACCUGCCGCCGGUGGUAAAAAAGAUCGGAAGAGCACACGUCU [U10A U11G C12G C13G]: the “aptazyme ON/OFF ratio” value came to 1.42.
As for GGGUCGUUGAGGUAUAAUCGCGUGGAUAUGGCACGCAAGUUUCUACCGGGCACCGUAAAUGUCCGACUGGAGCCGUUCGGGCGGCUAUAAACAGACCUCAGGCCCGAAGCGUGGCGGCACCUGCCGCCGGUGGUAAAAAAGAUCGGAAGAGCACACGUCU [U10A U11G C12G C13U], the “aptazyme ON/OFF ratio” value is 1.43.
GGGUCGUUGAGGAAUAAUCGCGUGGAUAUGGCACGCAAGUUUCUACCGGGCACCGUAAAUGUCCGACUGGAGCCGUUCGGGCGGCUAUAAACAGACCUCAGGCCCGAAGCGUGGCGGCACCUGCCGCCGGUGGUAAAAAAGAUCGGAAGAGCACACGUCU [U10A U11G C12G C13A]: the “aptazyme ON/OFF ratio” value is 1.27.
GGGUCGUUGACGGAUAAUCGCGUGGAUAUGGCACGCAAGUUUCUACCGGGCACCGUAAAUGUCCGACUGGAGCCGUUCGGGCGGCUAUAAACAGACCUCAGGCCCGAAGCGUGGCGGCACCUGCCGCCGGUGGUAAAAAAGAUCGGAAGAGCACACGUCU [U10A U11C C12G C13G]: the “aptazyme ON/OFF ratio” value turned out to be 1.29.
For GGGUCGUUGACGUAUAAUCGCGUGGAUAUGGCACGCAAGUUUCUACCGGGCACCGUAAAUGUCCGACUGGAGCCGUUCGGGCGGCUAUAAACAGACCUCAGGCCCGAAGCGUGGCGGCACCUGCCGCCGGUGGUAAAAAAGAUCGGAAGAGCACACGUCU [U10A U11C C12G C13U] the value was 1.23.
